# Laboratory results from patent US10155934B2, “Cytochrome P450 polypeptide with increased enzyme activity” (SANOFI, priority 2014, dated 2018).
# Where a chain is given by its changes, count along the chain named. Numbers in names are those of the source.
# B1: SA1: CYP11A1 comprising a threonine at position 225 and an aspartic acid at position 289 (protein)
# chain: ISTKTPRPYSEIPSPGDNGWLNLYHFWREKGSQRIHFRHIENFQKYGPIYREKLGNLESVYIIHPEDVAHLFKFEGSYPERYDIPPWLAYHRYYQKPIGVLFKKSGTWKKDRVVLNTEVMAPEAIKNFIPLLNPVSQDFVSLLHKRIKQQGSGKFVGDIKEDLFHFAFESITNVMFGERLGMLEETVNPEAQKFIDAVYKMFHTSVPLLNVPPELYRLFRTKTWTDHVAAWDTIFNKAEKYTEIFYQDLRRKTEFRNYPGILYCLLKSEKMLLEDVKANITEMLAGGVDTTSMTLQWHLYEMARSLNVQEMLREEVLNARRQAEGDISKMLQMVPLLKASIKETLRLHPISVTLQRYPESDLVLQDYLIPAKTLVQVAIYAMGRDPAFFSSPDKFDPTRWLSKDKDLIHFRNLGFGWGVRQCVGRRIAELEMTLFLIHILENFKVEMQHIGDVDTIFNLILTPDKPIFLVFRPFNQDPPQA
# modifications: Mutated amino acid sequence of CYP11A1
# B2: SA4: WT Bos taurus CYP11A1, mature form, wild-type control (protein, listed as Bos taurus)
# chain: B1 chain with T225R, D289N
# B3: SA6: P450scc-I1A-K193E polypeptide, control (protein)
# chain: B1 chain with I1A, K154E, T225R, D289N
# modifications: Mutated amino acid sequence of CYP11A1
# notes: P450scc-I1A-K193E polypeptide, control
# Tests used:
# [1] = test system: cholesterol; test: In vitro conversion assay of cholesterol by purified CYP11A1 variants with Adx and AdR; assay type: biochemical; conditions: 20 μM cholesterol, saturating Adx and AdR; for activity, SA4 compared with SA6 (in vitro conversion of cholesterol): 1 μM enzyme
# Experimental: For in vitro enzyme assays, 150 mM of HEPES buffer, adjusted to pH 7.4, containing 0.05% Tween-20 and 1 mM MgCl2, were applied as reaction buffer. 1 unit of glucose-6-phosphate dehydrogenase, with 5 mM glucose-6-phosphate as substrate, served as a NADPH-regenerating system.
# For WT P450scc (noted “SA4”, SEQ ID NO: 4) and P450scc-I1A-K193E (noted “SA6”, SEQ ID NO: 6) the concentrations of CYP11A1, Adx and AdR were of 1 μM, 20 μM and 0.5 μM, and for P450scc-R225T-N289D (noted “SA1”, SEQ ID NO: 1) the concentrations of CYP11A1, Adx and AdR were of 0.25 μM, 5 μM and 0.125 μM, respectively.
# The samples were pre-warmed to 37° C. and the reaction was started by addition of NADPH to a final concentration of 100 μM. The mixtures were incubated at 37° C. with agitation for 30 s. The reaction was stopped by boiling the samples in water for 30 s.
# To allow photometric detection at 240 nm, the steroids were converted into their 3-keto-Δ4 derivatives using a cholesterol oxidase from Nocardia spec.
# 20 μl of a cholesterol oxidase solution (5 mg cholesterol oxidase and 5 mg Na-cholate dissolved in 5 ml of 50 mM HEPES buffer pH 7, containing 0.05% Tween-20) were added to the samples. After incubation at 37° C. for 1 h, 11-deoxycorticosterone (DOC) was added to the reaction mixtures as an internal standard, followed by a 2-times extraction with equal volumes of ethylacetate. After evaporation, the extracts were dissolved in acetonitrile/water.
# After acute evaluation of the concentration of each P450scc preparation, SA1, SA4 and SA6 were used in the following in vitro assays. Each of these isoforms was reconstituted at a concentration of 1 μM in the presence of cholesterol as a substrate (20 μM) in saturating amounts of Adx and AdR.
# [2] = test system: cholesterol; test: In vivo conversion of cholesterol into pregnenolone by recombinant Bacillus megaterium expressing the P450scc polypeptide; assay type: cell-based; conditions: 300 μM cholesterol, Bacillus megaterium MS941, assessed after 24 h and 48 h (FIGS. 3 and 4)
Molecule,"activity compared to SA4 and SA6 (in vitro conversion of cholesterol) ([1]; 37° C., 30 s, HPLC (FIG. 1))",in vivo cholesterol conversion activity compared to SA6 [2],"activity, SA4 compared with SA6 (in vitro conversion of cholesterol) [1]"
B1,2-3 fold,2 fold,
B2,,,identical activity
B3,,,identical activity
